Consider one molecule from patent US20220144911A1 (UAB RESEARCH FOUNDATION, published 2022).

The target in one assay is RhCMVIL10 (rhesus cytomegalovirus (printed as …)).
The target in assay [1] is T1, cellular RhIL10 (rhesus macaque, UniProt P51496 19-178).
T1 construct: also called Rhesus IL10
The assay can be described thus: SPR, ratio of KD values. (Surface plasmon resonance follows binding to a sensor surface in real time, without labels.)
Method: (§1) Following the association phase, dissociation was monitored for 720 seconds. The binding parameters were extracted from the sensorgrams by fitting the data to a 1:1 binding model.
(§2) Surface Plasmon Resonance (SPR): SPR data collection and analysis was performed using a Biacore T-200 (GE healthcare). […] Sensorgrams were fit to appropriate models using Biacore T-200 evaluation software version 1.0.

Assay [2] addresses T1, cellular RhIL10. The assay can be described thus: SPR (Biacore T-200), RhIL10R1-FC captured by anti-human FC, IL10 as analyte, 1:1 model.
Method: as §1, §2

Sequence of RhCMVIL10 (rhesus cytomegalovirus (printed as …)) (P51496 whole entry): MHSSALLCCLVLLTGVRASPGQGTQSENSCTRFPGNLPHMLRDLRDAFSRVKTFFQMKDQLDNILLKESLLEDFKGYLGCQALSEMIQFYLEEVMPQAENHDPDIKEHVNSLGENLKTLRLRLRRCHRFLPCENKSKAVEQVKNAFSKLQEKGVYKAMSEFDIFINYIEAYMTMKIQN
T1 sequence (P51496 19-178 limits assumed): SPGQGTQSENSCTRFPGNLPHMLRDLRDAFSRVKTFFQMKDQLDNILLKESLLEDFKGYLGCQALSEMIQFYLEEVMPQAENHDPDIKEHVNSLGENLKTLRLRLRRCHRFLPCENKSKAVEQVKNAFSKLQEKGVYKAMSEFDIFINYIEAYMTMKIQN

B1: RhIL10R1-FC-SLS (Fc fusion)
chain: AHGTELPSPPSVWFEAEFFHHILHWTPIPNQSESTCYEVALLRYGTGRWNSISNCSQALSYDLTAVTLDLYRSNGYWARVRAVDGSRHSNWTVTNTRFSLDEVTLTVGSVKLEIHNGFILGKIQPPRPKMAPANDTYESIFRHFREYEIAIRKVPGNFTFTHKKVKHENFSLLTSGEVGEFCVQVKPSVTSRTNKGMWSKEECVSLTRQYFTVTNVGSGGGGPSVFLFPPKPKDTLMISRTPEVTCVVVDVSQEDPDVKFNWYVNGAEVHHAQTKPRETQYNSTYRVVSVLTVTHQDWLNGKEYTCKVSNKALPAPIQKTISKDKGQPREPQVYTLPPSREELTKNQVSLTCLVKGFYPSDIVVEWESSGQPENTYKTTPPVLDSDGSYFLYSKLTVDKSRWQQGNVFSCSVMHEALHNHYTQKSLSLSGGCGTPGK
notes: also called RhIL10R1-SLS; Rh10R1-FC
On to B1, for which, in the assay with RhCMVIL10, the Kd – broadly, the constant that tells how readily two partners part at equilibrium – stood at 0.0724 nM; the koff – broadly, the rate constant with which the complex falls apart – was found to be 0.00017 s⁻¹; the kon (as a rule, a measure of how fast the partners come together) was found to be 2.35e+06 M⁻¹ s⁻¹. Also, the “fold greater affinity than 1F11” value with cellular RhIL10 [1] is 4.8 fold. Moreover, in the assay with cellular RhIL10 [2], binding was put at a Kd of 0.136 nM, the koff is 0.000454 s⁻¹ and the kon came to 3.35e+06 M⁻¹ s⁻¹.
